Positions count from the first letter of the chain named. Names and notes keep the numbering of the source.
B1: Rep68* (AAV2 Rep68 C151S) (enzyme)
chain: MPGFYEIVIKVPSDLDGHLPGISDSFVNWVAEKEWELPPDSDMDLNLIEQAPLTVAEKLQRDFLTEWRRVSKAPEALFFVQFEKGESYFHMHVLVETTGVKSMVLGRFLSQIREKLIQRIYRGIEPTLPNWFAVTKTRNGAGGGNKVVDESYIPNYLLPKTQPELQWAWTNMEQYLSACLNLTERKRLVAQHLTHVSQTQEQNKENQNPNSDAPVIRSKTSARYMELVGWLVDKGITSEKQWIQEDQASYISFNAASNSRSQIKAALDNAGKIMSLTKTAPDYLVGQQPVEDISSNRIYKILELNGYDPQYAASVFLGWATKKFGKRNTIWLFGPATTGKTNIAEAIAHTVPFYGCVNWTNENFPFNDCVDKMVIWWEEGKMTAKVVESAKAILGGSKVRVDQKCKSSAQIDPTPVIVTSNTNMCAVIDGNSTTFEHQQPLQDRMFKFELTRRLDHDFGKVTKQEVKDFFRWAKDHVVEVEHEFYVKKGGAKKRPAPSDADISEPKRVRESVAQPSTSDAEASINYADRLARGHSL
notes: source: E. coli BL21(DE3), purified (Ni column, gel filtration on Superdex 200)
B2: Rep68*-Y224P (enzyme)
chain: B1 chain with Y224P
notes: as for B1
B3: Rep68*-N254A (enzyme)
chain: B1 chain with N254A
notes: as for B1
B4: Rep68*-Y224F (enzyme)
chain: B1 chain with Y224F
notes: also called Y224F mutant; source: E. coli BL21(DE3), purified (Ni column, gel filtration on Superdex 200)
B5: Rep68*-Y224D (enzyme)
chain: B1 chain with Y224D
notes: as for B1

Assays:
[1] = target: the molecule itself; test: AUC; sedimentation velocity, protein 10 uM, 25 mM Tris-HCl pH 8.0, 200 mM NaCl, 25,000 rpm, 20°C, SEDFIT (Fig. 1B, C)
[2] = target: the molecule itself; test: AUC; sedimentation velocity, all proteins at 1 mg/ml, else as in Materials and Methods (25 mM Tris-HCl pH 8.0, 200 mM NaCl, 20°C) (Fig. 2D)

Protein	binding result [1]	binding result [2]
B1	binds	–
B2	binds	–
B3	–	binds
B4	binds	–
B5	binds	–

Source: publication PMC4944284, “Identification of a Functionally Relevant Adeno-Associated Virus Rep68 Oligomeric Interface” (Journal of Virology, 2016)
